Test results taken from US20230295331A1 (PROMAB BIOTECHNOLOGIES, published 2023).
Several values for one entry are separate records, joined by “and”; a condition that tells them apart may be missing. Equal entries are not always repeated.

Experiments:
[1] = molecular target: T1, CS1 protein (SLAM family member 7, CD319) on cells (human, UniProt Q9NQ25 23-335); assay: binding titration by flow cytometry on CHO-CS1 cells
T1 construct: The cells are CHO-CS1 (bought from BPS Bioscience), Hela-CS1 (transduced with CS1 cDNA lentivirus) and the myeloma lines, which carry CS1 of their own; also called CHO-CS1 cells; Hela-CS1 cells
T1 sequence: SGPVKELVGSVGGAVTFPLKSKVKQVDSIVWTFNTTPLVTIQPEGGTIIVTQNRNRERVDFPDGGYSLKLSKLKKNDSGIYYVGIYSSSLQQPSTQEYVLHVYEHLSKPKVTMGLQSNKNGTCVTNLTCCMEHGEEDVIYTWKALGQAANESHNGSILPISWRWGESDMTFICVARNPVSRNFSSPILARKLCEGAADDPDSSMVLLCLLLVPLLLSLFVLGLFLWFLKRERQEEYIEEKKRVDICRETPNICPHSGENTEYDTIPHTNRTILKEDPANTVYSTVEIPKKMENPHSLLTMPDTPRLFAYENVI

[2] = molecular target: T1, CS1 protein (SLAM family member 7, …); assay: flow cytometry binding titration on CHO-CS1 cells

B1: mouse monoclonal anti-human CS1 antibody, clone 7A8D5 (antibody, V domains shown)
VH: VQLQQSGPEVVRPGVSVKISCKGSGYTFTDYAIHWVKQSHAKSLEWIGVINTYNGNTNYNQKFKGKATMTVDKSSSTAYMELARLTSEDSAIYYCTRTGYYYGPSHYFDYWGQGTTLTVSS
VL: DIVLTQSPASLTVSLGQRATMSCRASKSVSTSGYSYVHWYQQKPGQPPKLLIYLASNLESGVPARFSASGSGTDFTLNIHPVEEEDAATYYCQHSRELPWTFGGGTKLEIKR
notes: Mouse monoclonal antibody from a hybridoma, purified on a Protein G column; also called anti-CS1 antibody clone 7A8D5; CS1 clone 7A8D5
B1 was tested, and the Kd [1] was 5.3 nM and 0.8 µg/mL and the “EC50 (read off the curve)” value [2] was roughly 0.7 µg/mL.
